The values that follow come from paper PMC4764983.

For this experiment, the target named is histone deacetylase 1 (HDAC1), endogenous mouse (mouse (endogenous in C3H10T1/2 and STO)) (UniProt O09106).
UniProt O09106, sequence (O09106 whole entry): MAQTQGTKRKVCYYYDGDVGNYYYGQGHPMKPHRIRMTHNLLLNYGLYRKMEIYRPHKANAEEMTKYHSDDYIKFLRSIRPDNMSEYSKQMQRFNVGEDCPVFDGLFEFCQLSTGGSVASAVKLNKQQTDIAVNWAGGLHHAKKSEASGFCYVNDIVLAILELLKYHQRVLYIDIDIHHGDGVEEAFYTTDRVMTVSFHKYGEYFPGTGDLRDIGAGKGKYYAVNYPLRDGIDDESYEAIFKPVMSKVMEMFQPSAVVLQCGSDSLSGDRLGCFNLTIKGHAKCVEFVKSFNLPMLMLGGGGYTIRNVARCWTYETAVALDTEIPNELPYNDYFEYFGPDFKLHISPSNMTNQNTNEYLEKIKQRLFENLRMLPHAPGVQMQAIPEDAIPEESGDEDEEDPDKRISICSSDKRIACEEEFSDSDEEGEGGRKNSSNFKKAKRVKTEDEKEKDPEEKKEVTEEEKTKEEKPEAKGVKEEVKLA

For the substance V5-tagged SS18-SSX1 fusion protein, the fold increase in AXIN2 message (Q-PCR) after treatment with the HDAC inhibitor TSA in C3H10T1/2^SS18-SSX1-V5 cells, compared to a 6 fold increase in C3H10T1/2^pLIVc was 3 fold.
